From patent publication US8889130B2, “Treatment of osteoarthritis and pain” (Abbvie Inc., priority 2011, dated 2014) come the findings set out here.

In one experiment the test system is male DBA-1 mice. The experiment can be described thus: Collagen-induced arthritis mouse model (rheumatoid arthritis). In kind it is in vivo. The following applies: therapeutic mode; 1-3 mg/kg intraperitoneally every other day after disease onset. The procedure:
The therapeutic effects of anti-IL-1α, anti-IL-1β, combined anti-IL-1α/anti-IL-1β, and murine IL-1α/β DVD4-Ig, were evaluated in a collagen-induced arthritis mouse model well known in the art. Briefly, male DBA-1 mice were immunized with bovine type II collagen in CFA at the base of the tail. The mice were boosted with Zymosan intraperitoneally (i.p) at day 21. After disease onset at day 24-27, mice were selected and divided into separate groups of 10 mice each. […] To neutralize IL-1, mice were injected every other day with 1-3 mg/kg of anti-IL-1α mAb, anti-IL-1βmAb, combination of anti-IL-1α and anti-IL-1β mAbs, or murine IL-1α/β DVD4-Ig intraperitoneally. Mice were carefully examined three times a week for the visual appearance of arthritis in peripheral joints, and scores for disease activity determined.

The test system of the next experiment is Male SV129 mice. In words: Destabilization of medial meniscus (DMM) model of osteoarthritis, cartilage degeneration (Chambers scores). In kind it is in vivo, mouse. To be noted: for mean sum Chambers scores and mean maximum Chambers scores (cartilage degeneration): Example 3.3.6 (FIG. 7).
Excerpt: (§1) Male SV129 mice weighing approximately 30 grams, housed 5/cage, were anesthetized on Day 0 with ketamine/xylazine cocktail, administered intraperitoneally (ip), and then the medial collateral ligament was exposed by blunt dissection, and transected to reflect the meniscus toward the femur. The joint space was closed with 8-0 vicryl suture. The skin was closed with wound glue. For sham surgeries, a vertical skin incision was made over the medial aspect of the knee and the joint capsule was opened. The capsule was closed with 8-0 vicryl suture and the skin was closed with wound glue. Groups of animals were then treated with intraperitoneal (ip) injections of antibody or vehicle according to the study design table below. Two sex-matched, age-matched, and strain-matched naïve mice were also included in the study. Animals were euthanized after 8 weeks of treatment, and knee joints were harvested in 10% neutral buffered formalin.
Formalin-fixed samples were decalcified, and specimens were sectioned in the frontal plane into 15 step sections each. Each section was approximately 6 μm thick, and step sections were separated by 70 μm. All slides were stained with toluidine blue (T. Blue). Slides were assessed according to the Chambers method (Chambers et al. (2001) Arthritis Rheum 44:1455-65) for cartilage degeneration (see below) by a board-certified veterinary pathologist. Each of the four cartilage surfaces, the medial femoral condyle (MFC), the medial tibial plateau (MTP), the lateral femoral condyle (LFC), and the lateral tibial plateau (LTP), was scored from 0-6 according to the scale in the table below.
as §1, with “8-0 vicryl suture, and the” for “8-0 vicryl suture and the”, “injections of anti-mIL-1α monoclonal antibody, anti-mIL-1β (alone or in combination), mIL-1α/βDVD-Ig binding protein, or vehicle” for “injections of antibody or vehicle”, “design table below (Table 24). Animals were” for “design table below. Two sex-matched, age-matched, and strain-matched naïve mice were also included in the study. Animals were”, “weeks of treatment and knee” for “weeks of treatment, and knee”
Male SV129 mice weighing approximately 30 grams had the medial collateral ligament exposed by blunt dissection, and transected to reflect the meniscus toward the femur. The joint space was closed with 8-0 vicryl suture. The skin was closed with wound glue. For sham surgeries, a vertical skin incision was made over the medial aspect of the knee and the joint capsule was opened. The capsule was closed with 8-0 vicryl suture, and the skin was closed with wound glue. Groups of animals were then treated per os (po) or via intraperitoneal (ip) injections of vehicle or treatments according to the study design table below. Three sex-matched, age-matched, and strain-matched naïve mice were also included in the study. Animals were euthanized after 4 weeks of treatment, and knee joints were harvested in 10% neutral buffered formalin.

Experiment [1] concerns zymosan-induced IL-6 production. The experiment can be described thus: Zymosan-induced IL-6 production in joint instability model study. The experiment is classed as in vivo, mouse. To be noted: day 21 of JIM; 50 mg/kg zymosan ip, serum 4 hours later; mAbs 6 mg/kg each; DVD-Ig 6 or 12 mg/kg. Here is the method: As a pharmacodynamic readout to determine if anti-IL-1α and anti-IL-1β monoclonal antibodies as well as mIL-1α/β DVD-Ig binding protein were functional and capable of neutralizing IL-1α and IL-1β in vivo, zymosan-induced (IL-1α and IL-1β dependent) production of interleukin 6 (IL-6) was measured in a joint instability model study of OA.
Briefly, on day 21 in the model, zymosan was suspended in PBS vehicle and placed in boiling water for half an hour, then allowed to cool before using. The mice were then injected ip with 50 mg/kg zymosan in suspension (mixed well before injection) in 0.5 ml PBS. The mice were then bled 4 hours after zymosan injection. Serum was collected for IL-6 measurements.

The subject of another experiment is male Swiss Webster mice. In words: Joint instability model (JIM) of osteoarthritis, cartilage degeneration histology. The experiment is classed as in vivo, mouse. Here is the method:
The design of study of the in vivo activity of a mIL-1α/β DVD-Ig molecule in the joint instability model (JIM) of osteoarthritis in mice is shown in Table 19. All groups contained 25 mice (n=25), weighing approximately 30 grams (BW=30 g). The study was terminated after 21 days. Two and a half month old, male Swiss Webster mice (25/group/time point), housed 5/cage, were anesthetized with isoflurane anesthesia. Anterior cruciate ligament (ACL) trauma was administered on the right and left knees on day 0 in an attempt to induce OA lesions. Intraperitoneal (ip) treatments with IL-1 inhibitory antibodies IL-1α (9H10) and IL-1β (10G11), alone and in combination, were initiated the day of ACL trauma and continued every 4th day (q4d) for 20 days. The vehicle for the non-treatment control was PBS. Right and left knees were harvested on day 21, and histopathologic alterations were scored and characterized. Data were analyzed using only joints that had proliferative responses indicative of successful instability induction. The proliferative response/instability was scored 0-3, and only unstable joints (scores of 1, 2, or 3) were used in the final analysis. Medial and lateral femoral and tibial cartilage degeneration was scored for severity of cartilage degeneration on a scale 0-5. Four days after the last antibody dose, blood was drawn from all animals from each group for serum harvest. Body weights were recorded weekly. […]
Following 2-3 days in a decalcifying fixative (Surgipath Decalifier, Surgipath Medical Ind., Inc., Richmond Va.), both knee joints were trimmed of extraneous tissue, embedded in the frontal plane and sectioned. […] Slides were examined by a board-certified veterinary pathologist blinded to study group designation, and were scored according to the method below. […]
Medial and lateral femoral and tibial cartilage degeneration were scored for severity of cartilage degeneration using the following system: Depth/extent of chondrocyte and proteoglycan loss with fibrillation: […]
The design of this study was similar to that described above in Example 3.3.1. […] Body weights were recorded weekly. […]

B1: mIL-1α/βDVD-Ig: mouse anti-mouse DVD-Ig, V(anti-mIL-1β 10G11)-linker-V(anti-mIL-1α 9H10)-murine constant region (Cγ2a and Cκ) (antibody)
heavy: EVQLQQSGPELVKPGTSVKMSCKTSGYTFTSYVMHWVKQKPGQGLEWIGYIIPYNDNTKYNEKFKGKATLTSDKSSSTAYMELSSLTSEDSAVYYCARRNEYYGSSFFDYWGQGTTLTVSSAKTTAPSVYPLAPQVILKESGPGILQPSQTLSLTCSFSGFSLSTYGTAVNWIRQPSGKGLEWLAQIGSDDRKLYNPFLKSRITLSEDTSNSQVFLKITSVDTEDSATYYCANGVMEYWGLGTSVTVSSAKTTAPSVYPLAPVCGDTTGSSVTLGCLVKGYFPEPVTLTWNSGSLSSGVHTFPAVLQSDLYTLSSSVTVTSSTWPSQSITCNVAHPASSTKVDKKIEPRGPTIKPCPPCKCPAPNLLGGPSVFIFPPKIKDVLMISLSPIVTCVVVDVSEDDPDVQISWFVNNVEVHTAQTQTHREDYNSTLRVVSALPIQHQDWMSGKEFKCKVNNKDLPAPIERTISKPKGSVRAPQVYVLPPPEEEMTKKQVTLTCMVTDFMPEDIYVEWTNNGKTELNYKNTEPVLDSDGSYFMYSKLRVEKKNWVERNSYSCSVVHEGLHNHHTTKSFSRTPGK
light: DIQMTQSPASLSASVGETVTITCRGSGILHNYLVWYQQKQGKSPQLLVYSAKILADGVPSRFSGSGSGTQYSLKINSLQPEDFGSYYCQHFWSTPFTFGSGTKLEIKRADAAPTVSIFPPSIVMTQTPKFLLVSAGDRVTITCKASQSVNHDVAWYQQMPGQSPKLLIYFASNRYTGVPDRFTGSGYGTDFTFTISTVQAEDLAVYFCQQDYSSPYTFGGGTKLEIKRADAAPTVSIFPPSSEQLTSGGASVVCFLNNFYPKDINVKWKIDGSERQNGVLNSWTDQDSKDSTYSMSSTLTLTKDEYERHNSYTCEATHKTSTSPIVKSFNRNEC
Regarding B1, in the experiment with male DBA-1 mice, the “reduction in mean arthritis score compared to control group” value is 47%. For the same molecule, the “cartilage degeneration (total sum score)” value with Male SV129 mice (Example 3.3.5 (FIG. 6), 8 weeks of treatment ip, 6 mg/kg) is on record as “significantly reduced cartilage degeneration”. The “mean sum Chambers scores and mean maximum Chambers scores (cartilage degeneration)” value in the experiment with Male SV129 mice (8 weeks, DVD-Ig at 1.5 mg/kg (excepted from the significant reduction)) is “except for IL-1α/β DVD at 1.5 mg/kg”; with Male SV129 mice (8 weeks, DVD-Ig at 3 and 6 mg/kg) it was “significantly reduced”. Besides, the “dose effect for mean sum Chambers scores” value in the experiment with Male SV129 mice (Example 3.3.6, 8 weeks, DVD-Ig 1.5, 3, 6 mg/kg) is given as “statistically significant dose effect”. Also, the “zymosan-induced IL-6 production” value in experiment [1] is “significantly neutralized zymosan-induced IL-6 production”. The cartilage degeneration entry in the experiment on male Swiss Webster mice (3 mg/kg DVD-Ig binding protein) is reported as “had not effect on cartilage degeneration”. Besides, the “progression of osteoarthritis (cartilage degeneration scores, histopathological parameters)” value in the experiment on male Swiss Webster mice (Example 3.3.2 (FIG. 3), DVD-Ig 6 or 12 mg/kg ip three times weekly, mAbs 6 mg/kg each Q4D, day 21) is recorded as “significantly inhibited the progression of osteoarthritis”.
